Test results published in the DeepSol protein solubility set.

Assay: soluble on expression in E. coli; label from the status in PepcDB or PDB records

Sequence | soluble on expression in E. coli
SLTTVSVNESLLTPLNLEIDPNAQCVKQEEKEQIKSLNSRFAAFIDKVRFLEQQNKLLETKLQFYQNRECCQSNMEPLFEGYIETLRREAECVEADSGRLASELNHVQEVLEGYKKKYEEEVSLRATAENEFVALKKDVDCAYLRKSDLEANVEALIQEIDFLRRLYEEEIRILQSHISDTSVVVKLDNSRDLNMDCIIAEIKAQYDDIVTRSRAEAESWYRSKCEEMKATVIRHGETLRRTKEEINELNRMIQRLTAEVENAKCQNSKLEAAVAQSEQQGEAALSDARCKLAELEGALQKAKQDMACLIREYQEVMNSKLGLDIEIATYRRLLEGEEQRLCEGIGAVNVCVSSSRGGVVCGDLCVSGSRPVTGSVCSAPCNGNVAVSTGLCAPCGQLNTTCGGGSCGVGSCGISSLGVGSCGSSCRKC | soluble
MILGICGSPRKQATEHVLERALSMLEDDGLETEFFTVRGKNISPCRHCDYCLRNKECVLKDDMFPLYELLRRAAGIIIATPVYNGGVSAQIKAIMDRCRALGAEDYDSLRGKVGMGIAVGGDRCGGQEPALMQIHTFYILNGVIPVSGGSFGANLGACFWSRDTLEVLKRTHMDSKPSKRPWACLKGSWTLKDPEILFYSEFILEHHHHHH | not soluble
SQGRKPSSELISYQRLHPNEFEIKNLGVLPQSHVIRMERVRFADDIPVAYEITSIPEKIIRGFKESEITEHFFKTLTDNGYEIGKSQQTISASLANSSLAKHLKVKTGDALLSLTQISFLQDGQAFEYVRSYYVGDRFE | not soluble
DTIRWATEQAIANGTGEREYIKKLEPMLKELGWWGKAKDENGNEVQLGSPRRLRTILRTNKITAYHAARYAQQMENVDEQPYWRYVAVNDSRTRASHLALHGKIYRADDPIWQTMYPPNDWGCRCRVE | not soluble
MINEIKKDAQERMDKSVEALKNNLSKVRTGRAHPSLLSGISVEYYGAATPLNQVANVVAEDARTLAITVFDKELTQKVEKAIMMSDLGLNPMSAGTIIRVPLPPLTEERRKDLVKIVRGEAEGGRVAVRNIRRDANNDLKALLKDKEISEDEDRKAQEEIQKLTDVAVKKIDEVLAAKEKELMEV | soluble
DERGEVVDGDKLIGALAMHLKNSHTLEKPLAVATVMSNLALEEFLAKAKIKLLRAGVGDKYVLEMMQKEGANFGGEQSGHLIFSDFAKTGDGLVSALQTMAFVLRSGERASRALNIFDLY | not soluble
MASTIKEALSVVSEDQSLFECAYGTPHLAKTEMTASSSSDYGQTSKMSPRVPQQDWLSQPPARVTIKMECNPSQVNGSRNSPDECSVAKGGKMVGSPDTVGMNYGSYMEEKHMPPPNMTTNERRVIVPADPTLWSTDHVRQWLEWAVKEYGLPDVNILLFQNIDGKELCKMTKDDFQRLTPSYNADILLSHLHYLRETPLPHLTSDDVDKALQNSPRLMHARNTGGAAFIFPNTSVYPEATQRITTRPDLPYEPPRRSAWTGHGHPTPQSKAAQPSPSTVPKTEDQRPQLDPYQILGPTSSRLANPGSGQIQLWQFLLELLSDSSNSSCITWEGTNGEFKMTDPDEVARRWGERKSKPNMNYDKLSRALRYYYDKNIMTKVHGKRYAYKFDFHGIAQALQPHPPESSLYKYPSDLPYMGSYHAHPQKMNFVAPHPPALPVTSSSFFAAPNPYWNSPTGGIYPNTRLPTSHMPSHLGTYY | soluble
KIWLFFIEQANNEIRIDLRSNGINVRDIAIKYGGGGHNNASGAIITNKKQISDVVSD | soluble
MGSDKIHHHHHHMSKYDVSISVIMGVYNQNDEKVLREAVDSILNQTFKDFEFIIYDDGSQPDAALILEKIKKIDPRIVLIGQEKNHGLAFSLNACIEQARGKYIARMDADDISDPNRLKVQYDFLEKNPQYSWCGCNARLLDENGIWGTREMPEAPAEKDYLKYSPYIHPTVMYRASLFEETDGYKVSEETLLCEDYEIFMRLRQMGKRGYNIQETLFTYREDSDSYRRRDFKRGINEAKVRFENFNKLHVLFPTGWVYVFRPIIACLVPREMIYILKRMKTRKKPWKKELESELIITGK | not soluble
GGWGFLASFAAGIGLRHAEVATLGRASAPAEAQAAAADVREAGQASGAIEYGADRSEHPKVAAGAVMLDVLSFGNLLERSLEVLLVTLLGAMLYQHWDWRA | not soluble
MIASIFGKITFVGKRKIIVEANCISYWFNVKENHSFEKNLEKPRQVFCQIIKRMVTNQILEEGFA | not soluble
MAHHHHHHMVNLRLQVAVVGAPTVGKTAFVQMLHSNGTTFPKNYLMTLGCDFIVKEVPVDDDNTVEMIIFDVSGQREYEPMVSSYLQNTAVFIVMYDVSNKVTFEACARWVNQVRTNSKESVGILIANKSDLSDKAEVTDRQGKDLANANKMKFYKISTLRGVGITEPIDEIARHYVDAYQKRIEQLTQMR | not soluble
GHMTWEHNEFMQMTVKPFLIPADKVAHVQPGNYLDHALLVLTKTGYSAIPVLDTSYKLHGLISMTMMMDAILGLERIEFERLETMKVEEVMNRNIPRLRLDDSLMKAVGLIVNHPFVCVENDDGYFAGIFTRREVLKQLNKQLHRPNGGRKLGRKEAEQ | soluble
MGSDKIHHHHHHMRPDMFIGSYERSGGHGLYPAWLDSLGAISLGPPDTRIGNASFGLLDHRCGTAWFVEEQEPGAVSAWQWDDQVWTPLGRIGTGGASPCHLVRSPDGTLLAVANNDGGVAALVELDPETGALGKLAGVLRNEGGARSHAGCVRFAGDRIFIADRGLDRVLSCEYGAAGFGEVRTAFAAPRGSGPRQLLLRDDLALLACELTARLMLLRATGEGFELLDDIATDAAATPGNLAGHLAFQGDRIFVSNRGADTVASFRIDGERLRREDCWSSHGRSPRHFAMCGSYLVVTNEQDGIVCVLDIANGGRIAGTAIVPGAAFVLAMPL | not soluble
MTLEQQDRTEQQLAALNAQVRQDLCYLNYPAANWSKPVSTSDGQLVSDVVIIGGGMCGLVAWHALTRAGIANIRIVDRAAKGEEGPWVTYARMETLRSPKNLLGPALGMASLTFRAWYTARFGKEAWEELFRIPRPMWMEYLSWYRQVMEIPVENNIHVTRVIPRLDGLLELEIEGGKADPIITRKLVMATGRDGLGEPTIPDFVKGMPRHVSWAHSADMIDFQRLKGKRVVVIGVGASAVDNAAEALEQGAGEVRLLARRKTMPTINKLMGIGSYGVTAGFAKIDPEWRWRLMDYSVKQQTPAPHNSTLRVSRHSNAYFHFDCGIQSMKEEGGEVVITTINGRVFRTDFVILGTGFSIDPVSRPELEMFNGQIACWEDRYTPPAGEENPGLGRFPWLQDDFSFTEKEPGAAPWLQHIHCFNYGSSVSLGKVSGDIPAISEGALWLARGIAASLFIADIDHHWEALKAYEKPELDGSEWTDADADPSMQKTALEHHHHHH | soluble
MLSRPSGTVAKTEFQLRRNVLPALKRFVSAAAKSAGVQEKTTVLENGLRVSSVELNGATSSIVLAFRAGSRYQPANKQGLTHLIRNSVGRDAPNFPGLALVWNTAQNGGNLTAVSNRDVLAIEVNVVRDQSAVVLSLLGQLGNNAFKPWDVEDVKHDTLPADATYLTGTTIAFEQLHQAAFRNGGLGLSNYSVNNVSAKDLSAFAKERLVAGEAVLVGVNVDHDTLVQAGSTQFPLAQNQPAKATPAKYFGGEARKDGRGNRSYVAIAGEGSAITSVKDVAVQAVVAQILLNAAQKVTSEAISVNVNYQDSGLVGVQFAACNTQITQVTKSIASAIKSAKADGLDNAKNTAAVQVLSDAQHASEVALEKATQVLAGVEVSPREFADAIRAVTAQDVTQALSRVNGKLSLAAYGSTSLVPYLDEL | not soluble
LKPKILTASRKIKIKAGFTHNLEVDFIGAPDPTATWTVGDSGAALAPELLVDAKSSTTSIFFPSAKRADSGNYKLKVKNELGEDEAIFEVIVQ | soluble
